Assay: soluble on expression in E. coli; label from the status in PepcDB or PDB records

Soluble on expression in E. coli, soluble:
MSLATLQDLDLTGNTNLVLEHKTLDIFSHITTLKIDQKPLPTTDSTVTSTFWSHGLAEMAGQRNKLCVSALAMDSFAEGVGAVYGMFDGDRNEELPRLLQCTMADVLLEEVQQSTNDTVFMANTFLVSHRKLGMAGQKLGSSALLCYIRPDTADPASSFSLTVANVGTCQAVLCRGGKPVPLSKVFSLEQDPEEAQRVKDQKAIITEDNKVNGVTCCTRMLGCTYLYPWILPKPHISSTPLTIQDELLILGNKALWEHLSYTEAVNAVRHVQDPLAAAKKLCTLAQSYGCQDNVGAMVVYLNIGEEGCTCEMNGLTLPGPVGFASTTTIKEGHHHHHH
MSLATTVKIATISPLSGSSSNLGLQIKNGAQLAVNEYKAEFAKLGMNLSLVAYDDQADPATGTAAARRVVADKNVLAVVGTLNTGVAIPASQALSTSKVAMVSPANTGTKVTDRGLKNMNRICARDDAQGPAGADFMVSTLKVKKVYVINDKTPYGEGLSGEAEKRLKAKGVQIVQSEGVAAEERDFTAIITKIQTLKPDAIYFGGLYGQIGPFAQQLRAKGVQVPLIGGDGMDSDELAKLAGAQGANNIYFTTVAPPLDSVPAAKTMAGNFKKAFGSDVQGYGIMGYDSAKVVLQGILDAAKKNGNKAPSRAQVETAIRSGTFGNLLTGTVQFDKNGDRKAGKMYVIAIKNAQRSTAGQVNVLREGHHHHHH
MSLCDRSEVGDVSLGMFTLKDIKINNLTDPVVTGVTCHVASIEADLSLADPSDSSISCRQTGEITPEMIAQIDKSSSGEVVFQKSKSIFFKSMKIRRIFDAKNQTLMYLSYSTKETSGSFKHSLSTVPLWGTQAYNAFPETQNKEGHHHHHH

Soluble on expression in E. coli, not soluble:
MSLATICSLCNKKISIFKMRLKFKDGVVGQSCLSELNLCNFWAFEPGAKEYAESHTIADLKELQTSGKDFTNIQDQYIDDETKKELQKKQEKKQERQEKIEVLKEFKDDGATKFSSYYFDLKKNQILSSGSLTTSWRVIDFSEVLSYQVNRNGHLEQKHHGIARAVTGGIMAGGVGAIVGTTTGENTDYIDHLGLVINLSDGTNFEVKFLKTKTKTNSFTVKTAEGELRSLISIVQSGMNKAQEKAEQEQTKANTIKIESNADPAEEIRKFKKMADEGIISNEEFEAKKKQLLNLQEGHHHHHH
MSLATKDPTAVERANLLNMAKLSIKGLIESALSFGRTLDSDYPPLQQFFVVMEHCLKHGLKGRKSFLSYNKTIWGPLELVEKLYPEAEEIGASVRDLPGLKTPLGRARAWLRLALMQKKMADYLRCLIIQRELLSEFYEYHALMMEEEGAVIVGLLVGLNVIDANLCVKGEDLDSQVGVIDFSMYLKNEEEIGNKERNVQIAAILDQKNYVEELNRQLNSTVSSLHSRVDSLEKSNTKLIEELAIAKNNIIKLQEENHQLRSENELILMRTRQHLEVTKVDVETELQTYKHSRQGLDEMYNDARRQLRDESQLRQDVENELSVQVGMKHEMELAMKLLEKDIHEKQDTLIGLRQQLEEVKAINIEMYQRLQGSEDGLKEKNEIIARLEEKTNKITTAMRQLEQRLQQAEKAQKEAEAEDEKYAQECLSQSDSLQRQISQKEQQLVQLETDLKIEKEWRQTLQEDLQKEKDVLSHLRHETQKVISLKKEFLNLQDENQQLKRIYQEQEQALQELGSKLCESKLKIDDIKEANKALQGLVWLKDKDATHCKLCEKEFSLSKRKHHCRNCGEIFCNACSDNELPLPSSPKPVRVCDSCHAMLIQRCSSNMPEGHHHHHH
MSLATWSAERFGFGAALGDHDRARRAAVGEAVERYCGNAVPDALEIACYDDLARAGRPALDPATLALYSDRQYRARGFPFRPFTRQTPVAWVPGRDLYAGGPVLVPASMAYLNYFRGAHADEVATHAMLYAGIATGENREHAERFALEELFERDANTIWWASGAAGWAVADAAELLDRYDIAHGEGTGRTIRLFQVPSQFPVPVLAAFLEEPGRGLIAYGTACRADPREAATKALVEAFAMLELTAELADGDSAHWRAVARGEIPPHTYLPYRADRRYADDIRPDFRDLVDLPAVAQLYLDPRMQGRPLDRLRDDTRTTRLADIPRADGDANGGTAHRRYLDMLATQGLSAVSVDVTTPDVRAAGLTVVRVIVPGLYGNPPAAFPFLGGERLYDVPAQLGLAAGKITEDALYPYPIPHEGHHHHHH

Reference: the DeepSol protein solubility set
